Experimental data from PMC9482650, “Quantitative fragmentomics allow affinity mapping of interactomes” (Nature Communications, 2022).
Each block holds one binder with its values, some of them ahead of it.

Key:
Assay in all cases: holdup assay
Parameters in all cases: key: below the threshold = too weak to quantify, mostly under pKd 3.1 to 4
[1] = biological target: T1, APBA2_2, Q99767
T1 sequence (Q99767 654-744, limits assumed, looked up): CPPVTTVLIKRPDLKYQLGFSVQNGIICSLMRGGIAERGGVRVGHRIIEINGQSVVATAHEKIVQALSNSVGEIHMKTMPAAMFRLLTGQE

[2] = biological target: ARHGEF12, Q9NZN5-2
Chain of ARHGEF12, Q9NZN5-2 (Q9NZN5 other isoform, or with tags, fused parts or gaps): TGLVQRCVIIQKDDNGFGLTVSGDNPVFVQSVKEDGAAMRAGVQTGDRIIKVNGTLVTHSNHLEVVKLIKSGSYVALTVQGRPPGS

[3] = biological target: T2, CARD11, Q9BXL7
T2 sequence (Q9BXL7 662-765, limits assumed, looked up): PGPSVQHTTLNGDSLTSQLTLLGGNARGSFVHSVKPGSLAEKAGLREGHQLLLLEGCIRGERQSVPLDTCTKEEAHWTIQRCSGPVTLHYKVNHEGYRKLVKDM

[4] = biological target: CASK, O14936
Chain of CASK, O14936 (O14936 487-570): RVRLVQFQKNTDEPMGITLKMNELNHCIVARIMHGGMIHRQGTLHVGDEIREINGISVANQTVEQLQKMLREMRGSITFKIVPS

[5] = biological target: T3, DFNB31_1, Q9P202
T3 sequence (Q9P202 135-233, limits assumed, looked up): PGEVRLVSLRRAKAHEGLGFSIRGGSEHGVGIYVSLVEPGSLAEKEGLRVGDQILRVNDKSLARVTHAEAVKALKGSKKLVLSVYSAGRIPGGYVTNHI

[6] = biological target: FRMPD2_2, Q68DX3
Chain of FRMPD2_2, Q68DX3 (Q68DX3 944-1038): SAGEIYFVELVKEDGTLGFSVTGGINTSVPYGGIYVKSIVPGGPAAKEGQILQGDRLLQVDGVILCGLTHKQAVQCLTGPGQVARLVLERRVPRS

[7] = biological target: GRID2IP_1, A4D2P6
Chain of GRID2IP_1, A4D2P6 (A4D2P6 1-87): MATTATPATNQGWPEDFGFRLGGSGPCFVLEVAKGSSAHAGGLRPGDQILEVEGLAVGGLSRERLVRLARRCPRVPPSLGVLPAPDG

[8] = biological target: GRID2IP_2, A4D2P6
Chain of GRID2IP_2, A4D2P6 (A4D2P6 272-370): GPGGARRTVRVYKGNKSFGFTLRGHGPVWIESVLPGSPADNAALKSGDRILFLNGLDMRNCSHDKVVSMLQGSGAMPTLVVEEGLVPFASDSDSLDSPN

[9] = biological target: T4, GRIP1_2, Q9Y3R0
T4 sequence (Q9Y3R0 145-248, limits assumed, looked up): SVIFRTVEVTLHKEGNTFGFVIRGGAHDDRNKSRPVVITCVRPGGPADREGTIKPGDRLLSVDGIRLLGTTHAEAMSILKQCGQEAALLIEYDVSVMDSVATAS

[10] = biological target: T5, GRIP1_3, Q9Y3R0
T5 sequence (Q9Y3R0 247-346, limits assumed, looked up): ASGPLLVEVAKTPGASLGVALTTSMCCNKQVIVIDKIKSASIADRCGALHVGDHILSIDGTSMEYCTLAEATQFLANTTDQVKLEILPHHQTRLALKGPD

[11] = biological target: T6, GRIP1_7, Q9Y3R0
T6 sequence (Q9Y3R0 999-1096, limits assumed, looked up): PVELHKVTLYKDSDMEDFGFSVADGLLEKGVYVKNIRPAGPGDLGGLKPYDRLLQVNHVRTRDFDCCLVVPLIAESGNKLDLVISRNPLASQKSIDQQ

[12] = biological target: GRIP2_4, Q9C0E4
Chain of GRIP2_4, Q9C0E4 (Q9C0E4 446-548): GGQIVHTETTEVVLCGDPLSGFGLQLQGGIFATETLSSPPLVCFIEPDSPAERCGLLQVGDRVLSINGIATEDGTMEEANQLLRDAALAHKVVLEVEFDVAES

[13] = biological target: IL16_1, Q14005
Chain of IL16_1, Q14005 (Q14005 210-306): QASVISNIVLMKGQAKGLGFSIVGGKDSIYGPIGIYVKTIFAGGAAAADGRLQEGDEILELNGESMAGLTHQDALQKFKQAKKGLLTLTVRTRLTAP

[14] = biological target: Inadl_6, Q8NI35
Chain of Inadl_6, Q8NI35 (Q8NI35 1058-1167): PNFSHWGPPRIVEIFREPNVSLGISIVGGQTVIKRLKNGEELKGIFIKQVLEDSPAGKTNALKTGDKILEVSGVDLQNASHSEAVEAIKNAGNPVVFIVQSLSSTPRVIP

[15] = biological target: Inadl_9, Q8NI35
Chain of Inadl_9, Q8NI35 (Q8NI35 1530-1615): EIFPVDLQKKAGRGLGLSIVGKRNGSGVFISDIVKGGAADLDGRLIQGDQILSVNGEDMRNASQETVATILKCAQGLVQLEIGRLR

[16] = biological target: LIMK2, P53671
Chain of LIMK2, P53671 (P53671 143-248): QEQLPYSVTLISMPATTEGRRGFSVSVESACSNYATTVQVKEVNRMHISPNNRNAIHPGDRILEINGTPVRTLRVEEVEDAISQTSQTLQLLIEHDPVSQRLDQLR

[17] = biological target: LNX1_2, Q8TBB1
Chain of LNX1_2, Q8TBB1 (Q8TBB1 371-470): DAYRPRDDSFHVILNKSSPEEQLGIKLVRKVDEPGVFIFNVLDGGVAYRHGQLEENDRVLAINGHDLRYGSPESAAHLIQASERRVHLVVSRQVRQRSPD

[18] = biological target: T7, LNX2_3, Q8N448
T7 sequence (Q8N448 463-564, limits assumed, looked up): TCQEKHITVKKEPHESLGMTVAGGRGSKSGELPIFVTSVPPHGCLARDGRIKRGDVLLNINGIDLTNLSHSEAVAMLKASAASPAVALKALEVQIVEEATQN

[19] = biological target: MAGI1_1, Q96QZ7
Chain of MAGI1_1, Q96QZ7 (Q96QZ7 1-106): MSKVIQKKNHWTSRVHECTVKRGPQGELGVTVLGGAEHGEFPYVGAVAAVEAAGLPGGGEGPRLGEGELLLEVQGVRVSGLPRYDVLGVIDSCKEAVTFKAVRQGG

[20] = biological target: MAGI2_2, Q86UL8
Chain of MAGI2_2, Q86UL8 (Q86UL8 410-522): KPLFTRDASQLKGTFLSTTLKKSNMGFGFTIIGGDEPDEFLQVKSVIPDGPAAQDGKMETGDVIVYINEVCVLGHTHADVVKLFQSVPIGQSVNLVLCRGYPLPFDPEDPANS

[21] = biological target: MAGI2_5, Q86UL8
Chain of MAGI2_5, Q86UL8 (Q86UL8 915-1017): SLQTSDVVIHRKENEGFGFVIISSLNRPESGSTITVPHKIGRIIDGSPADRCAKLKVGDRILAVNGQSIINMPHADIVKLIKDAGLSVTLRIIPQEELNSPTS

[22] = biological target: T8, MPDZ_12, O75970
T8 sequence (O75970 1857-1958, limits assumed, looked up): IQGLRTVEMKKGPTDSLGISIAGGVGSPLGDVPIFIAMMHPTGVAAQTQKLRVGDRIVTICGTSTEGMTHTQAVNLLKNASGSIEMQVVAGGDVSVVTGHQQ

[23] = biological target: T9, NHERF3_3, Q5T2W1
T9 sequence (Q5T2W1 238-333, limits assumed, looked up): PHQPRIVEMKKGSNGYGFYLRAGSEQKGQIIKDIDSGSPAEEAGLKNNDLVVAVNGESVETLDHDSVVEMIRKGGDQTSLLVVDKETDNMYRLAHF

[24] = biological target: NHERF4_4, Q86UT5
Chain of NHERF4_4, Q86UT5 (Q86UT5 464-550): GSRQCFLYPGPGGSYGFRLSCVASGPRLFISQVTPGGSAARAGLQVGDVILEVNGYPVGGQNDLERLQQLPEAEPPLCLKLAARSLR

[25] = biological target: PDLIM1, O00151
Chain of PDLIM1, O00151 (O00151 1-87): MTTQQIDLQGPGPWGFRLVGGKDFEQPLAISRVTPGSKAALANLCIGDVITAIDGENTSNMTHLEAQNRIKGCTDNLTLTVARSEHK

[26] = biological target: T10, RADIL, Q96JH8
T10 sequence (Q96JH8 971-1071, limits assumed, looked up): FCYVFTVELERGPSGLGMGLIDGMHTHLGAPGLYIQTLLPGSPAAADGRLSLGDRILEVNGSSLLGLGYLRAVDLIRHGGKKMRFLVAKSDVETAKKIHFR

[27] = biological target: T11, SIPA1L2, Q9P2F8
T11 sequence (Q9P2F8 945-1036, limits assumed, looked up): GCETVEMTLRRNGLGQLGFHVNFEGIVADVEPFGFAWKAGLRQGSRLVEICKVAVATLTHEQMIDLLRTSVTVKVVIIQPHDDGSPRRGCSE

[28] = plain residues with an end cap or a label only (N-terminal biotin on a linker: ahx)
[29] = plain residues with an end cap or a label only (N-terminal biotin on a linker: ttds)

pKd [1, 28]: below the threshold
pKd [2, 28]: 5.02
pKd [3, 28]: below the threshold
pKd [4, 28]: below the threshold
pKd [5, 28]: 3.93
pKd [6, 28]: 4.61
pKd [7, 28]: below the threshold
pKd [8, 28]: 4.41
pKd [9, 28]: below the threshold
pKd [10, 28]: below the threshold
pKd [11, 28]: below the threshold
pKd [12, 28]: below the threshold
pKd [13, 28]: 3.58
pKd [14, 28]: 3.81
pKd [15, 28]: below the threshold
pKd [16, 28]: below the threshold
pKd [17, 28]: 3.79
pKd [18, 28]: below the threshold
pKd [19, 28]: below the threshold
pKd [20, 28]: 4.18
pKd [21, 28]: 4.63
pKd [22, 28]: 3.63
pKd [23, 28]: below the threshold
pKd [24, 28]: below the threshold
pKd [25, 28]: below the threshold
pKd [26, 28]: 4.23
pKd [27, 28]: below the threshold
Binder: HSGSYLVTSV [APC, P25054]

pKd [1, 29]: below the threshold
pKd [2, 29]: 3.86
pKd [3, 29]: below the threshold
pKd [4, 29]: below the threshold
pKd [5, 29]: below the threshold
pKd [6, 29]: below the threshold
pKd [7, 29]: below the threshold
pKd [8, 29]: 4.1
pKd [9, 29]: below the threshold
pKd [10, 29]: below the threshold
pKd [11, 29]: below the threshold
pKd [12, 29]: below the threshold
pKd [13, 29]: below the threshold
pKd [14, 29]: below the threshold
pKd [15, 29]: below the threshold
pKd [16, 29]: below the threshold
pKd [17, 29]: below the threshold
pKd [18, 29]: below the threshold
pKd [19, 29]: below the threshold
pKd [20, 29]: below the threshold
pKd [21, 29]: below the threshold
pKd [22, 29]: below the threshold
pKd [23, 29]: below the threshold
pKd [24, 29]: below the threshold
pKd [25, 29]: below the threshold
pKd [26, 29]: below the threshold
pKd [27, 29]: below the threshold
Binder: DPLTPSRSQL [DGKK, Q5KSL6]
